The values below come from US20090022728A1 (RINAT NEUROSCIENCE, published 2009).

Changes are numbered by the printed parent chain.

To fix the notation:
B1: 9TL variant M16 Fab (Fab, V domains shown)
VH: QVQLVQSGAEVKKPGASVKVSCKASGYYTEAYYIHWVRQAPGQGLEWMGRIDPATGNTKYAPRLQDRVTMTRDTSTSTVYMELSSLRSEDTAVYYCASLYSLPVYWGQGTTVTVSS
VL: DVVMTQSPLSLPVTLGQPASISCKSSQSLLYSDAKTYLNWFQQRPGQSPRRLIYQISRLDPGVPDRFSGSGSGTDFTLKISRVEAEDVGVYYCLQGTHAPVLFGQGTRLEIKR
notes: Fab; human IgG2 CH1 and kappa CL
B2: 9TL variant M39 Fab (Fab, V domains shown)
VH: B1 VH with L102S
VL: B1 VL with A99Y
notes: as for B1
B3: 9TL variant M28 Fab (Fab, V domains shown)
VH: B1 VH
VL: B1 VL with A99Y, V101M
notes: as for B1
B4: 9TL variant M23 Fab (Fab, V domains shown)
VH: B1 VH
VL: B1 VL with A99Y, V101K
notes: as for B1
B5: 9TL variant M41 Fab (Fab, V domains shown)
VH: B1 VH with L102Q
VL: B1 VL with A99Y
notes: as for B1
B6: 9TL variant M17 Fab (Fab, V domains shown)
VH: B1 VH
VL: B1 VL with A99W
notes: as for B1
B7: 9TL variant M30 Fab (Fab, V domains shown)
VH: B1 VH
VL: B1 VL with A99Y, L102V
notes: as for B1
B8: 9TL variant M35 Fab (Fab, V domains shown)
VH: B1 VH with S101G
VL: B1 VL with A99Y
notes: as for B1
B9: 9TL variant M27 Fab (Fab, V domains shown)
VH: B1 VH
VL: B1 VL with A99Y, V101E
notes: as for B1
B10: 9TL variant M20 Fab (Fab, V domains shown)
VH: B1 VH
VL: B1 VL with A99S
notes: as for B1
B11: 9TL variant M18 Fab (Fab, V domains shown)
VH: B1 VH
VL: B1 VL with A99Q
notes: as for B1
B12: 9TL variant M40 Fab (Fab, V domains shown)
VH: B1 VH with L102T
VL: B1 VL with A99Y
notes: as for B1
B13: 9TL variant M37 Fab (Fab, V domains shown)
VH: B1 VH with L102A
VL: B1 VL with A99Y
notes: as for B1
B14: 9TL variant M31 Fab (Fab, V domains shown)
VH: B1 VH with L99V
VL: B1 VL with A99Y
notes: as for B1
B15: 9TL variant M32 Fab (Fab, V domains shown)
VH: B1 VH with L99I
VL: B1 VL with A99Y
notes: as for B1
B16: 9TL variant M26 Fab (Fab, V domains shown)
VH: B1 VH
VL: B1 VL with A99Y, V101A
notes: as for B1
B17: 9TL variant M29 Fab (Fab, V domains shown)
VH: B1 VH
VL: B1 VL with A99Y, L102S
notes: as for B1
B18: 9TL variant M22 Fab (Fab, V domains shown)
VH: B1 VH
VL: B1 VL with A99Y, V101L
notes: as for B1
B19: 9TL variant M25 Fab (Fab, V domains shown)
VH: B1 VH
VL: B1 VL with A99Y, V101T
notes: as for B1
B20: 9TL variant M24 Fab (Fab, V domains shown)
VH: B1 VH
VL: B1 VL with A99Y, V101H
notes: as for B1
B21: 9TL variant M19 Fab (Fab, V domains shown)
VH: B1 VH
VL: B1 VL with A99M
notes: as for B1
B22: 9TL variant M38 Fab (Fab, V domains shown)
VH: B1 VH with L102V
VL: B1 VL with A99Y
notes: as for B1
B23: 9TL variant M36 Fab (Fab, V domains shown)
VH: B1 VH with L102R
VL: B1 VL with A99Y
notes: as for B1
B24: 9TL variant M21 Fab (Fab, V domains shown)
VH: B1 VH
VL: B1 VL with A99E
notes: as for B1

In one test the target is T1, biotinylated Aβ1-40 peptide (biotinylated (N-biotinylated in Example 7)).
T1 construct: captured on streptavidin (SA) chip; also called Biotinylated Aβ peptide 1-40; Aβ1-40 on SA chip
T1 sequence (peptide, as listed by the source): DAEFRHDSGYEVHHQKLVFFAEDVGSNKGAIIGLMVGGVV
In words: SPR, Fab over Aβ1-40 on SA chip; KD=koff/kon. The protocol: (§1) Affinities of 9TL Fab fragment and its variants Fab fragments were determined by Surface Plasmon Resonance (SPR) system (BIAcore 3000™, BIAcore, Inc., Piscaway, N.J.). SA chips (streptavidin) were used according to the supplier's instructions. Biotinylated Aβ peptide 1-40 was diluted into HBS-EP (10 mM HEPES pH 7.4, 150 mM NaCl, 3 mM EDTA, 0.005% P20) and injected over the chip at a concentration of 0.005 mg/mL. Using variable flow time across the individual chip channels, two ranges of antigen density were achieved: 10-200 response units (RU) for detailed kinetic studies and 500-600 RU for concentration studies and screening. […] HBS-EP buffer was used as running buffer for all the BIAcore assays. […] The concentrations of the Fab proteins were determined by ELISA and/or SDS-PAGE electrophoresis using a standard Fab of known concentration (determined by amino acid analysis). Kinetic association rates (kₒₙ) and dissociation rates (koff) were obtained simultaneously by fitting the data to a 1:1 Langmuir binding model (Karlsson, R. Roos, H. Fagerstam, L. Petersson, B. (1994). Methods Enzymology 6. 99-110) using the BIAevaluation program. Equilibrium dissociation constant (KD) values were calculated as koff/kₒₙ.
(§2) All amino acid substitutions of the variants shown in Table 3 are described relative to the sequence of 9TL. KD and other kinetic parameters were determined by BIAcore analysis described above with Aβ₁₋₄₀ immobilized on SA chip.
The molecule B1 had a Kd of 2.2 nM.

B2 gave a Kd of 7.23 nM.

For the molecule B3, the Kd amounted to 44 nM.

B4 registered a Kd of 15.7 nM.

The molecule B5 came in with a Kd of 31.4 nM.

B6 had a Kd of 3.14 nM. This Kd is about 10-fold lower than that of the molecule before.

In the case of B7, binding was put at a Kd of 2.14 nM.

As to B8, the Kd was determined as 28.3 nM.

As for B9, the Kd is 37.7 nM.

With B10, the Kd amounted to 6.29 nM. Against the preceding molecule, the Kd is about 6-fold lower.

On to B11, for which the affinity, expressed as Kd, was 4.72 nM. The Kd values of the last two molecules are within 1.5-fold of each other.

B12 displayed a Kd of 14.2 nM. This Kd lies about 3-fold higher than the previous one.

B13 displayed a Kd of 2.89 nM.

The molecule B14 displayed a Kd of 31.4 nM.

On to B15, for which binding was characterised by a dissociation constant (Kd) of 62.9 nM. Compared with the last molecule, the Kd is about 2-fold higher.

Turning to B16, the Kd stood at 28.3 nM.

Take B17: the affinity, expressed as Kd, was 2.39 nM. This Kd is about 12-fold lower than that of the molecule before.

With B18, the Kd stood at 12.6 nM.

Turning to B19, the Kd worked out at 25.2 nM. Compared with the last molecule, the Kd is about 2-fold higher.

In the case of B20, binding was put at a Kd of 18.9 nM.

B21 had a Kd of 5.35 nM. This Kd lies about 3.5-fold lower than the previous one.

Molecule B22 gave a Kd of 4.72 nM.

B23 had a Kd of 2.83 nM.

In turn, B24 returned a Kd of 15.7 nM.

The next test has as its target T1, biotinylated Aβ1-40 peptide. In words: SPR, Fab over Aβ1-40 on SA chip; kon may be assumed = 9TL (footnote 2). The protocol: as §1, §2
In turn, B1 showed a kon of 318000 M⁻¹ s⁻¹.

As for B2, the kon came out at 318000 M⁻¹ s⁻¹.

In turn, B3 had a kon of 318000 M⁻¹ s⁻¹.

Take B4: the kon turned out to be 318000 M⁻¹ s⁻¹.

For B5, the kon is 318000 M⁻¹ s⁻¹.

Take B6: the kon came out at 318000 M⁻¹ s⁻¹.

In turn, B7 registered a kon of 318000 M⁻¹ s⁻¹.

The molecule B8 came in with a kon of 318000 M⁻¹ s⁻¹.

For the molecule B9, the kon stood at 318000 M⁻¹ s⁻¹.

Take B10: the kon came out at 318000 M⁻¹ s⁻¹.

As to B11, the kon stood at 318000 M⁻¹ s⁻¹.

For B12, the kon is 318000 M⁻¹ s⁻¹.

For the molecule B13, the kon worked out at 318000 M⁻¹ s⁻¹.

On to B14, for which the kon turned out to be 318000 M⁻¹ s⁻¹.

For B15, the kon came out at 318000 M⁻¹ s⁻¹.

Molecule B16 had a kon of 318000 M⁻¹ s⁻¹.

As to B17, the kon stood at 318000 M⁻¹ s⁻¹.

Consider B18, for which the kon is 318000 M⁻¹ s⁻¹.

Take B19: the kon was found to be 318000 M⁻¹ s⁻¹.

In turn, B20 came in with a kon of 318000 M⁻¹ s⁻¹.

On to B21, for which the kon came out at 318000 M⁻¹ s⁻¹.

Molecule B22 had a kon of 318000 M⁻¹ s⁻¹.

As for B23, the kon was determined as 318000 M⁻¹ s⁻¹.

In the case of B24, the kon came to 318000 M⁻¹ s⁻¹.

For a further test the target is unchanged. In words: SPR, Fab over Aβ1-40 on SA chip. As to the method: as §1, §2
With B1, the koff is 0.0007 s⁻¹.

Molecule B2 gave an off-rate (koff) of 0.0023 s⁻¹.

As for B3, the koff was 0.014 s⁻¹.

Consider B4, for which the koff was found to be 0.005 s⁻¹.

Molecule B5 showed a koff of 0.01 s⁻¹.

Consider B6, for which the koff worked out at 0.001 s⁻¹.

The molecule B7 showed a koff of 0.00068 s⁻¹.

Molecule B8 displayed a koff of 0.009 s⁻¹.

Molecule B9 displayed a koff of 0.012 s⁻¹. The koff values of the last two molecules are within 1.5-fold of each other.

B10 showed a koff of 0.002 s⁻¹.

Molecule B11 gave a koff of 0.0015 s⁻¹.

Consider B12, for which the koff is 0.0045 s⁻¹.

Take B13: the koff came out at 0.00092 s⁻¹.

In turn, B14 came in with a koff of 0.01 s⁻¹.

Turning to B15, the koff worked out at 0.02 s⁻¹.

The molecule B16 returned a koff of 0.009 s⁻¹.

Consider B17, for which the koff is 0.00076 s⁻¹.

In turn, B18 showed a koff of 0.004 s⁻¹. This koff is about 5.3-fold higher than that of the molecule before.

For B19, the koff was determined as 0.008 s⁻¹.

Molecule B20 showed a koff of 0.006 s⁻¹.

In the case of B21, the off-rate constant (koff) came out at 0.0017 s⁻¹.

As for B22, the koff worked out at 0.0015 s⁻¹.

Regarding B23, the koff was found to be 0.0009 s⁻¹.

The molecule B24 yielded a koff of 0.005 s⁻¹. Compared with the last molecule, the koff is about 5.6-fold higher.
